Experimental data reported in patent US20240287172A1 (SCIRHOM, published 2024).
Where a chain is given by its changes, count along the chain named.

T1: human iRhom2, endogenously expressed (human, UniProt Q6PJF5 1-856)
T1 construct: also called RHBDF2
T1 sequence: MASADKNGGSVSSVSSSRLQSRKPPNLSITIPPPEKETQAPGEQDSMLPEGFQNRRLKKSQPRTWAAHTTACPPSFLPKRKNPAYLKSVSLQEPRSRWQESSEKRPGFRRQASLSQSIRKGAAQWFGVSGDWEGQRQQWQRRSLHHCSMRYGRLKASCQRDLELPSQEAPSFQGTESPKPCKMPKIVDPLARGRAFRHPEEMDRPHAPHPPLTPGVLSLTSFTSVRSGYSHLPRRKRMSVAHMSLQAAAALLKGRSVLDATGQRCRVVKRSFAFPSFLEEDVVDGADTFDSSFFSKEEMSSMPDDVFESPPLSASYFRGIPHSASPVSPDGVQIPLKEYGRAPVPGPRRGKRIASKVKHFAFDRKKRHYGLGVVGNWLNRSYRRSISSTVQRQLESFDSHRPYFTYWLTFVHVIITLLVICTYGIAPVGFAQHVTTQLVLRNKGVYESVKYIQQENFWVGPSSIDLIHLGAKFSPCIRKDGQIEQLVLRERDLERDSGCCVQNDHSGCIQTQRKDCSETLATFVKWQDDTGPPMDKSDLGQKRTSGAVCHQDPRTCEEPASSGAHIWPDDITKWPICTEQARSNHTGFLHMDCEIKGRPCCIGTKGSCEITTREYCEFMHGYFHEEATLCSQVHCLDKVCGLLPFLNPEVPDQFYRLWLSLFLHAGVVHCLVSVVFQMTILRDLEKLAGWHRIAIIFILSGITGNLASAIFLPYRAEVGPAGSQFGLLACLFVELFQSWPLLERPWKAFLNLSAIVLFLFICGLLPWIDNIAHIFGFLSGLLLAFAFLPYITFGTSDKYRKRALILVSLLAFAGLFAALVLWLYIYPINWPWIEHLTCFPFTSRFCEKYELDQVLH

T2: miR2-FL-WT-T7 (mouse, UniProt Q80WQ6 1-827)
T2 construct: on MEF-DKO cells
T2 sequence: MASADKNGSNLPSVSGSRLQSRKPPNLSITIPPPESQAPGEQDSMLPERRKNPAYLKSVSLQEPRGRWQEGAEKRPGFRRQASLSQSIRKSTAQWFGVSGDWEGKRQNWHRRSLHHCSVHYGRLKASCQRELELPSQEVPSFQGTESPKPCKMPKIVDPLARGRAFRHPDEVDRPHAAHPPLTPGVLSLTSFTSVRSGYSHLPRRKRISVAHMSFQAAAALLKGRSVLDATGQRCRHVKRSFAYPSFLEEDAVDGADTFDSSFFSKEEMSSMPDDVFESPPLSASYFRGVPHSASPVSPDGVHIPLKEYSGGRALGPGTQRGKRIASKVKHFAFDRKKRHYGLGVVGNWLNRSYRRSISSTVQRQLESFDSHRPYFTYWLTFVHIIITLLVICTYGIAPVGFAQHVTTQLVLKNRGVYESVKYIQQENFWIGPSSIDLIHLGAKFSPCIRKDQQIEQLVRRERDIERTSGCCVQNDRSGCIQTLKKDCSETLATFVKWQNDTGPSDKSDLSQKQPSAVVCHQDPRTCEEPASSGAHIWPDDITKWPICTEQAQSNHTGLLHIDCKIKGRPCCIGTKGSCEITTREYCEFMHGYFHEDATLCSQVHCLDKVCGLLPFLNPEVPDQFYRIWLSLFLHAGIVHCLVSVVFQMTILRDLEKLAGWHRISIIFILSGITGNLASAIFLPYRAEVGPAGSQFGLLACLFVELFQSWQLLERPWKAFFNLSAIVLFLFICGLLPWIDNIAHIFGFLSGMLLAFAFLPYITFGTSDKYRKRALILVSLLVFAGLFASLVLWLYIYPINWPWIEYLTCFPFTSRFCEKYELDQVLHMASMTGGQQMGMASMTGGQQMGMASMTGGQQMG

B1: antibody 48 (antibody, V domains shown)
VH: QVQLQQSGTELVRPGTSVKVSCKASGYAFTNYLIEWVKQRPGQGLEWIGVINPGSGFTKYNEKFKGKATLTADKSSSTVYMHLSSLTSEDSAVYFCARGLYRAMDYWGQGTSVTVSS
VL: DIQMTQSPASQSASLGESVTITCLASQTIATWLAWYQQKPGKSPQLLIYGATTLADGVPSRFSGGGSGTKFSFKISSLQAEDFVSYYCQQLYSTPYTFGGGTKLEIK
notes: mouse IgG, kappa light chain; also called clone #48; purified antibody 48
B2: antibody 50 (antibody, V domains shown)
VH: B1 VH with T9A, T16A, T30S, V79A, H82Q
VL: B1 VL with A30G, G50A, T52A, T53S, S85N, L91I
notes: mouse IgG, kappa light chain; also called clone #50; purified antibody 50
B3: antibody 34 (antibody, V domains shown)
VH: QVTLKESGPGILQPSQTLSLTCSFSGFSLSTFSLGVGWIRQSSGKGLEWLAHIWWDDEKYYNPALKSRLTISKDTSKNQVFLKIANVDAADTATYYCARAYYSKSYYALDYWGQGTSVTVSS
VL: DIQMTQSPSSLSASLGERVSLTCRASQEISGYLSWLQQKPDGTIKRLIYAASTLDSGVPKRFSGSRSGSDYSLAISSLESEDFADYYCLQYANFPFTFGSGTKLEIK
notes: mouse IgG, kappa light chain; also called clone #34; purified antibody 34
B4: antibody 16 (antibody, V domains shown)
VH: QVTLKESGPGILQPSQTLSLTCSFSGFSLSTFALGVGWIRQPSGRGLEWLAHIWWDDDKYYNPALKSRLTISKDTSKNHVFLKIANVDTADTATYYCARITTYYYGMDYWGQGTSVTVSS
VL: DIVLSQSPATLSVTPGDSVSLFCRASQSIGNHLHWYQQESHASPRLLIKYASQSISGIPSRFSGSGSGTDFTLSINSVETEDFGMYFCQQSYNWPLTFGAGTKLELK
notes: mouse IgG, kappa light chain; also called clone #16; purified antibody 16
B5: antibody 3 (antibody, V domains shown)
VH: QVTLKESGPGILQPSQTLSLTCSFSGFSLTTFAMGIGWVRQPSGKGLEWLAHIWWDGEKYNNPVLKSRLTISKDTSKNQVFLRIANVDTPDTATYYCARISSIYYIIDNWGQGTSVTVSS
VL: B4 VL with S5T, D17H, F22S, G30S, H32N, Q38K, E39K, A42E, A51V
notes: mouse IgG, kappa light chain; also called clone #3; purified antibody 3
B6: antibody 5 (antibody, V domains shown)
VH: QVTLKESGPGILQPSQTLSLTCSFSGFSLSTFGMGVGWIRQPSGKGLEWLAHIWWDDEKYYNSALKSRLTISKATSKNQAFLKIANVDTADTATYYCARISNYGSNYWYFNVWGTGTTVTVSS
VL: QVVLTQSPALMSASPGEKVTMTCSAGSSVSCMYWYQQKPGSSPRVLIYDTSNLASGVPARFTGSGSGTSYSLTISRMEAEDAASYYCQQWNSYPLTFGAGTKLELK
notes: mouse IgG, kappa light chain; also called clone #5; purified antibody 5
B7: antibody 44 (antibody, V domains shown)
VH: B6 VH with G44E, E58D, S63P, A74D, A80I, A85T, D91E, A98S, S101G, N111D
VL: QIVLTQSPAVMSASPGEKVTMTCTASSSVYYMYWYQQTPGSSPRLLIYDTSNLASGVPVRFSGSGSGTSYSLTISRMEAEDAATYYCQQWNTYPLTFGAGTKLELK
notes: mouse IgG, kappa light chain; also called clone #44; purified antibody 44
B8: antibody 43 (antibody, V domains shown)
VH: B6 VH with T3A, P42S, H52N, E58D, S63P, A74D, T75A, S101G, N111D
VL: QIVLTQSPAIMSASPGERVTMTCSANSRISYMYWYQQKPGSSPRLLIYDTSNLASGVPVRFSGSGSGTSYSLTISRMEAEDAATYNCQQWSSYPLTFGAGTKLELK
notes: mouse IgG, kappa light chain; also called clone #43; purified antibody 43
B9: antibody 42 (antibody, V domains shown)
VH: B6 VH with F24L, M34R, S63P, A74D, A80V, K83R, S101Q, N111D
VL: B8 VL with Q1L, R18K, S24G, N26T, Y33F, L45V, M77V, A82V, N86Y, S91N
notes: mouse IgG, kappa light chain; also called clone #42; purified antibody 42
B10: antibody 22 (antibody, V domains shown)
VH: B6 VH with A80V
VL: B6 VL with C31Y, S84T
notes: mouse IgG, kappa light chain; also called clone #22; purified antibody 22

What was measured:
[1] = target: T1, human iRhom2, endogenously expressed; test: indirect FACS scatchard analysis on THP-1 cells
Procedure: In brief, human THP-1 cells (American Type Culture Collection, USA) were harvested with 10 mM EDTA in PBS, washed and resuspended in FACS buffer (PBS, 3% FBS, 0.05% sodium azide), and seeded in Nunc U-bottom 96-well plates (Thermo Fisher Scientific, USA) at approximately 3×10⁵ cells per well. In order to pellet cells and remove supernatants, the plates were centrifuged at 1,500 rpm and 4° C. for 3 minutes. For primary staining, cells were resuspended in 100 μl per well of either FACS buffer alone (controls) or serial two-fold dilutions (in total 22 concentrations) of the purified antibodies 3, 5, 16, 22, 34, 42, 43, 44, 48, and 50 of the invention in FACS buffer starting at 40 μg/ml and incubated on ice for 1 hour. Afterwards, plates were centrifuged at 1,500 rpm and 4° C. for 3 minutes and washed twice with 200 μl per well of FACS buffer. For secondary staining, cells were spun down and resuspended in 100 μl per well of PE-conjugated goat anti-mouse IgG F(ab′)2 detection fragment (Dianova, Germany) diluted 1:100 in FACS buffer. Protected from light, the cell suspensions were incubated on ice for 1 hour. Plates were then centrifuged at 1,500 rpm and 4° C. for 3 minutes and washed three times with 200 μl per well of FACS buffer. Finally, cells were resuspended in 150 μl per well of FACS buffer and analyzed using a BD Accuri™ C6 Plus flow cytometer (Becton Dickinson, Germany). Applying Prism8 software (GraphPad Sowtware, USA), the respective KD value for each of the antibodies of the invention were calculated.

miR2-FL-WT-T7 = target: T2, miR2-FL-WT-T7; test: FACS on MEF-DKO cells

Binder | Kd [1] [nM] | binding result (miR2-FL-WT-T7)
B1 | 1.73 | –
B2 | 1.43 | –
B3 | 1.94 | no binding (tested: 3 µg/ml)
B4 | 0.34 | no binding (tested: 3 µg/ml)
B5 | 2.97 | –
B6 | 3.35 | no binding (tested: 3 µg/ml)
B7 | 0.44 | no binding (tested: 3 µg/ml)
B8 | 4.55 | no binding (tested: 3 µg/ml)
B9 | 1.9 | no binding (tested: 3 µg/ml)
B10 | 2.04 | no binding (tested: 3 µg/ml)
